Experimental findings from patent publication US20240336661A1, “PEPTIDES DERIVED FROM RUMINOCOCCUS TORQUES” (University of Copenhagen, priority 2021, published 2024) are described below.

For test [1], the target named is αV/β5 integrin receptor complex (Homo sapiens, UniProt P06756+P18084). The experiment in a line: Co-immunoprecipitation on a nickel ion column. In kind it is binding. Conditions: 100 nM Fc-fused RUCILP2, 5 nM His-tag αV/β5 integrin. As to the method: FIG. 6. Co-immunoprecipitation on a nickel ion column to validate binding of recombinant RUCILP2 to the αV/β5 integrin receptor complex. 100 nM Fc-fused RUCILP2 was incubated with 5 nM of His-tag αV/β5 integrin receptor, followed by immunoprecipitation using nickel-nitrilotriacetic acid (Ni-NTA) agarose. Precipitated integrins and co-precipitated irisin were analyzed by immuno-blot analysis. Elution indicates a mixture of disassociated integrin and RUCILP2 from the integrin-RUCILP2 complex. Before loading, samples were a mixture of co-incubation of RUCILP2 and integrin receptor.
Chain of αV/β5 integrin receptor complex (P06756 31-992 limits assumed): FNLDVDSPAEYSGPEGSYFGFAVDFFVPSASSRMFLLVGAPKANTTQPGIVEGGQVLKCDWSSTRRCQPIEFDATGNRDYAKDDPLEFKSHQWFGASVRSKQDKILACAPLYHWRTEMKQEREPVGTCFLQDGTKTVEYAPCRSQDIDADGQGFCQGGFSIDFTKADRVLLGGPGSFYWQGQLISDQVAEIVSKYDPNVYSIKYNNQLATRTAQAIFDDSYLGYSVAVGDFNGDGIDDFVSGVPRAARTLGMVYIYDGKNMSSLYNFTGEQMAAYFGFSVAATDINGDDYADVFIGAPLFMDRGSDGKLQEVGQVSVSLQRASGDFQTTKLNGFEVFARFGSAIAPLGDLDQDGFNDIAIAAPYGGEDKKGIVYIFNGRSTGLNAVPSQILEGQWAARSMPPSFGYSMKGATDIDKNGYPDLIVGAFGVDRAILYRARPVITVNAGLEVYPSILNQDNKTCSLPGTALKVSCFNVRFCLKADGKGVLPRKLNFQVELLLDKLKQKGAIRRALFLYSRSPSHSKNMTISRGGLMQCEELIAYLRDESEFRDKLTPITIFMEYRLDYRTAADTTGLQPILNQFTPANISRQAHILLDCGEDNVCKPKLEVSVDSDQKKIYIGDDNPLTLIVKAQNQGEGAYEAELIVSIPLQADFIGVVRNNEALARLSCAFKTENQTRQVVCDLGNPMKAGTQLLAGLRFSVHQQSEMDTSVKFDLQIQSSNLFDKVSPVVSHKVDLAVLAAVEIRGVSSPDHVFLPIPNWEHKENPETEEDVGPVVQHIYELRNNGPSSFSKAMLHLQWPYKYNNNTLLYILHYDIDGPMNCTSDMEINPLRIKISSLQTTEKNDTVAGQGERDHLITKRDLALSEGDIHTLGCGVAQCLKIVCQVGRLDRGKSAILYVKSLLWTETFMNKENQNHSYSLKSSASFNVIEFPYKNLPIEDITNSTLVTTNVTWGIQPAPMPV
Chain of αV/β5 integrin receptor complex (P18084 24-719 limits assumed): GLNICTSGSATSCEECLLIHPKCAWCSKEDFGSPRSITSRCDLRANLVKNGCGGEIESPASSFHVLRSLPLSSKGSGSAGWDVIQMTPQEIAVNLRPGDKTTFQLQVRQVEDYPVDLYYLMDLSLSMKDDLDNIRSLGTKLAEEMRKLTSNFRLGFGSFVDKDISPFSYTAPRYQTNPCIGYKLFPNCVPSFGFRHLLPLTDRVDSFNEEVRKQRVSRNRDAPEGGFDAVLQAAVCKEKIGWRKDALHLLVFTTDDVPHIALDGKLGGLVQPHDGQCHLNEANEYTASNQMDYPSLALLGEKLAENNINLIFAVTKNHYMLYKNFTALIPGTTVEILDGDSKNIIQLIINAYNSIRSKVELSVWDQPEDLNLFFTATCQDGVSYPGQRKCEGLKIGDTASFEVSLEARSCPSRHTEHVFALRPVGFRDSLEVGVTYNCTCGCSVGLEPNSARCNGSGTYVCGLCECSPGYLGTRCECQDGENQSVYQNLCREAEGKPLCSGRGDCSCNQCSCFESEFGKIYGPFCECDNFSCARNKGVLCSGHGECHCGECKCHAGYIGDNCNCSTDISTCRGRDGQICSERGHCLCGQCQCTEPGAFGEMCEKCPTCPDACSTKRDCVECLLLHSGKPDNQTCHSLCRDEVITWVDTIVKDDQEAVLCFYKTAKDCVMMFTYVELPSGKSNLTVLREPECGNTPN
• Step 1: Binding of integrin and RUCILP2. One hundred nM FC-tagged RUCILP2 was incubated with 5 nM of the indicated his-tag integrin avb5 in a final volume of 500ul in 1.5 ml Protein LoBind Tubes (Eppendorf, 022431081) for 5/30/90 minutes at room temperature under rotation. • Step 2: After rotation, Ni spin column (ThermoFisher Scientific, R901-01) was applied to immunoprecipitate integrins. In details, Add 500 μl of FC-RUCILP2-integrin-His protein complex to the column. Mix end-over-end at 4° C. for 15 minutes. […] Precipitated integrin was detected by immuno-blot analysis against his tag. Co-precipitated RUCILP2 was detected by immunoblot analysis against FC-tag. […]

The subject of test [2] is human visceral white pre-adipocytes. Kind of test: Thermogenesis/browning gene expression in human visceral white pre-adipocytes (q-PCR). In kind it is cell-based. Conditions: human white preadipocytes, treatment from third day of differentiation, harvested after 14 days. As to the method: (§1) FIG. 9. Exposure of recombinant RUCILP2 to human visceral white pre-adipocytes or murine inguinal white adipocytes causes up-regulation of the expression of genes involved in thermogenesis/browning. Upper panel: mRNA expression level of adipocyte differentiation marker genes including Ucp1, Pparγ1, Dio2, and Cox2 and brown adipocyte-selective genes including Cpt1b and Ebf2 on human white preadipocytes (HWP). Human white preadipocytes were cultured until 80% confluent and switched into differentiation media (with 0.3 ml/ml fetal calf serum, 8 ug/ml d-biotin, 0.5 ug/ml insulin, 400 ng/ml dexamethasone). The differentiation process to mature adipocytes was completed after 12-14 days. The treatment of RUCILP2 started from the third day of differentiation. Cells were harvested after 14 days of differentiation and the gene expressions were quantified by q-PCR. […] Statistical significance was determined by unpaired two-tailed Student's t test. *, p<0.05 vs 0 nM RUCILP2.
(§2) FIG. 28. […] Cells were harvested after 14 days of differentiation and the indicated genes were quantified by q-PCR. […] Cells were harvested after 6 days of differentiation and thermogenesis gene were quantified by q-PCR. […] Cells were harvested after 4 days of differentiation and expression of myogenesis genes were quantified by q-PCR. […] Statistical significance was determined by unpaired two-tailed Student's t test, *, p<0.05 […]

Test [3] relates to murine inguinal white adipocytes. The experiment in a line: Thermogenesis gene expression in murine inguinal adipocytes (q-PCR). It counts as cell-based, mouse. As to conditions: murine inguinal white adipocytes from stromal vascular fraction, treated 4 days. As to the method:
as §1, §2

B1: RUCILP2: 87 amino acid irisin-like polypeptide cleaved from the Ruminococcus torques FNDC5-like protein RUMTOR_00181; recombinant, 6-His-tagged from E. coli (protein)
chain: APVDVKVSEITETSAKASWKNAADGKEAAGYNVYVDGVKLNKELLTEASCGLTNLKAETTYFVEVTAVDAAGNESVKSEKVTFKTLK
modifications: 6-His tag; Ruminococcus torques
notes: 87 amino acid irisin-like polypeptide cleaved from the Ruminococcus torques FNDC5-like protein RUMTOR_00181; recombinant, 6-His-tagged from E. coli
For the molecule B1, in test [1], the “binding to αV/β5 integrin receptor (co-immunoprecipitation)” value is given as “direct interaction”. The “expression of genes involved in thermogenesis/browning (Ucp1, Pparγ1, Dio2, Cox2, Cpt1b, Ebf2)” value in test [2] is given as “up-regulation”. Besides, in test [3], the “expression of genes involved in thermogenesis/browning” value is listed as “up-regulation”.
